Laboratory results reported in patent US20180148477A1 (published 2018).
Several values for one entry are separate records, joined by “and”; a condition that tells them apart may be missing. Equal values may be shown once. Values belong to the binder of their own block, whether it stands above or below them. Bridge positions count the residues as written; N and C are the ends. Square brackets hold non-standard residues; d marks the D form. Ends that are not written are not given here. Phe(4-tBu) = CC(C)(C)c1ccc(C[C@H](N)C(=O)O)cc1; 2Nal = N[C@@H](Cc1ccc2ccccc2c1)C(=O)O; NMeR = CN[C@@H](CCCNC(=N)N)C(=O)O; β3hE = N[C@@H](CCC(=O)O)CC(=O)O; Pen = CC(C)(S)[C@H](N)C(=O)O

Assays:
[1] = biological target: T1, rh integrin α4β7 (R&D Systems #5397-A30) (human, UniProt P13612 34-970; P26010 20-723); assay: competition ELISA vs MAdCAM-1
T1 construct: Bought recombinant heterodimer, coated on a nickel plate; also called immobilized α4β7; soluble α4β7 integrin

[2] = biological target: human α4β7 integrin on cells (human) (UniProt P13612); assay: FACS, human whole blood, 1 mM MnCl2; CD4 naïve T cells
[3] = biological target: rh integrin α4β7 (R&D Systems #5397-A30) (human) (UniProt P13612); assay: SPR, biotin antibody on streptavidin chip, soluble α4β7
[4] = biological target: human α4β7 integrin on cells (human) (UniProt P13612); assay: FACS, human whole blood, 1 mM MnCl2; NK cells CD16+ 56+
[5] = biological target: human α4β7 integrin on cells (human) (UniProt P13612); assay: FACS, human whole blood, 1 mM MnCl2; CD8 naïve T cells
[6] = biological target: human α4β7 integrin on cells (human) (UniProt P13612); assay: FACS, human whole blood, 1 mM MnCl2; Monocytes
[7] = biological target: human α4β7 integrin on cells (human) (UniProt P13612); assay: FACS, human whole blood, 1 mM MnCl2; Basophils
[8] = biological target: human α4β7 integrin on cells (human) (UniProt P13612); assay: FACS, human whole blood, 1 mM MnCl2; Eosinophils
[9] = biological target: human α4β7 integrin on cells (human) (UniProt P13612); assay: FACS, human whole blood, 1 mM MnCl2; Neutrophils
[10] = biological target: human α4β7 integrin on cells (human) (UniProt P13612); assay: FACS, human whole blood, 1 mM MnCl2; CD19+ B cells
[11] = biological target: human α4β7 integrin on cells (human) (UniProt P13612); assay: FACS, human whole blood, 1 mM MnCl2; CD4 memory T cells
[12] = biological target: human α4β7 integrin on cells (human) (UniProt P13612); assay: FACS, human whole blood, 1 mM MnCl2; CD8 memory T cells
[13] = biological target: α4β1 (R&D Systems #5668-A4) (UniProt P13612); assay: competition ELISA vs VCAM-1
[14] = biological target: mouse α4β7 integrin on TK1 cells (mouse) (UniProt Q00651); assay: TK1 adhesion to MAdCAM-1
Chain of mouse α4β7 integrin on TK1 cells (mouse) (Q00651 41-1039, chain 1 of 2): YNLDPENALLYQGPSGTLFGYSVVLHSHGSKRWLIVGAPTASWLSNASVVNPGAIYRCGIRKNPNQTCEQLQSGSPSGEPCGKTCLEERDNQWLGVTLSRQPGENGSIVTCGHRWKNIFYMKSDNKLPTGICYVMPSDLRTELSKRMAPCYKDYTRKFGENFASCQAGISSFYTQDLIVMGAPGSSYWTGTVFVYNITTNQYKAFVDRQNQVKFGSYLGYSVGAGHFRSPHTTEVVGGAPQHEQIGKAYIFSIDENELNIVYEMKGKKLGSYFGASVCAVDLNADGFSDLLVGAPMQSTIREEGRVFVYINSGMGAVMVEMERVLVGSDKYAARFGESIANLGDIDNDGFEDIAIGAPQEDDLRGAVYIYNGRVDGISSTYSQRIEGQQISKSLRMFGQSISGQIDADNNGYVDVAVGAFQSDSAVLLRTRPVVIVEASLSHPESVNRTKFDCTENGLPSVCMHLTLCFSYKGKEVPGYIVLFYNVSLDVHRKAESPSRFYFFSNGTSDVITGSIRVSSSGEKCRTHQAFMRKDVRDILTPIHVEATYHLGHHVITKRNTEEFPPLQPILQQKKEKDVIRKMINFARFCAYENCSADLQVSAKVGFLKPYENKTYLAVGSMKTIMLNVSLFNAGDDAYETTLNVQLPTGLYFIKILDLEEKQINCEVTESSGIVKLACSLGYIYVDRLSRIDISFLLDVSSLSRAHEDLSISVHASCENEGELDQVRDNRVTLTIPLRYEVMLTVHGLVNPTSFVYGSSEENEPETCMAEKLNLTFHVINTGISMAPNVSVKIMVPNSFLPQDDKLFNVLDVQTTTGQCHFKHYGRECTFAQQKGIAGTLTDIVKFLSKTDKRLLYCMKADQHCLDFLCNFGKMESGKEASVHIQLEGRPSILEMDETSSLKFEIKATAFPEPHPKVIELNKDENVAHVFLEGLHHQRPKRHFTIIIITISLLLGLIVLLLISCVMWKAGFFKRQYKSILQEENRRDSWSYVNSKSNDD
Chain of mouse α4β7 integrin on TK1 cells (mouse) (P26011 20-806, chain 2 of 2, further chain): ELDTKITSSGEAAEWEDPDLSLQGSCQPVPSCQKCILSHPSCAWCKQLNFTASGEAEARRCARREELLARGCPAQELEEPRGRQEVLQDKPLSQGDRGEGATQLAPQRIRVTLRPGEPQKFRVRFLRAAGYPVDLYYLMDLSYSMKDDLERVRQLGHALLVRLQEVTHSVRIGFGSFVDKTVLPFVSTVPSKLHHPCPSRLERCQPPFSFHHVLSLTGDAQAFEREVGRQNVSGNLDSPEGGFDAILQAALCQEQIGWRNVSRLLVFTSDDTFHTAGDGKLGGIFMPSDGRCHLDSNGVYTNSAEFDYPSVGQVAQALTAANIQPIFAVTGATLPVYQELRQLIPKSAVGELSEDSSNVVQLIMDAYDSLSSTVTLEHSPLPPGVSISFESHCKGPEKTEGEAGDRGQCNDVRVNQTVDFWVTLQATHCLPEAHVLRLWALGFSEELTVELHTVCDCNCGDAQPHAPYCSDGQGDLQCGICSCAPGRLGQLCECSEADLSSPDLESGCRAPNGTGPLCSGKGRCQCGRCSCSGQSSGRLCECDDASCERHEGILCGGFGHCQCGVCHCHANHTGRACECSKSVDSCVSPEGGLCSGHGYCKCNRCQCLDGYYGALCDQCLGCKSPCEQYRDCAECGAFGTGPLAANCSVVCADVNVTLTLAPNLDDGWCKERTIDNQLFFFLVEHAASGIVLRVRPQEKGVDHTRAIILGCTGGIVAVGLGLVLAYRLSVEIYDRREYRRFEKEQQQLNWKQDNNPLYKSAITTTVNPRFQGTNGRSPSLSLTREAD

[15] = biological target: human α4β7 integrin on cells (human) (UniProt P13612); assay: RPMI8866 adhesion to MAdCAM-1
[16] = biological target: rh integrin α4β7 (R&D Systems #5397-A30) (human) (UniProt P13612); assay: competition ELISA vs MAdCAM-1
[17] = biological target: human α4β7 integrin on cells (human) (UniProt P13612); assay: PBMC memory T cell adhesion
[18] = biological target: T1, rh integrin α4β7 (R&D Systems #5397-A30); assay: SPR, biotin peptide on streptavidin chip, soluble α4β7

B2: Peptide 210 (peptide)
peptide: Ac-[Pen][NMeR]SDTL[Pen][2Nal]E[dK]-NH2
modifications: disulfide 1-7
SMILES: CC(=O)N[C@@H]1C(=O)N(C)[C@@H](CCCNC(=N)N)C(=O)N[C@@H](CO)C(=O)N[C@@H](CC(=O)O)C(=O)N[C@@H]([C@@H](C)O)C(=O)N[C@@H](CC(C)C)C(=O)N[C@H](C(=O)N[C@@H](Cc2ccc3ccccc3c2)C(=O)N[C@@H](CCC(=O)O)C(=O)N[C@H](CCCCN)C(N)=O)C(C)(C)SSC1(C)C
IC50 [13]: 200 nM
IC50 [14]: 60 nM
IC50 [15]: 40 nM
IC50 [16]: 11 nM
IC50 [17]: 517 nM

B3: Peptide X-biotin (peptide)
peptide: Ac-[Pen][NMeR]SDTL[Pen][Phe(4-tBu)][β3hE][dK]
modifications: disulfide 1-7 (inferred); also: biotin attached via PEG linker, site not given here, dimer of two subunits joined by DIG linker, as Peptide X
half-life for dissociation [18]: 11.1 h and ~11 h

The remaining lines, values ahead:

IC50 [1]: > 1000 nM
Binder: Ac-[Pen][NMeR]S[Prop acid]TL[Pen]WE[dK]-NH2 (disulfide 1-7) [SEQ ID NO: 47]

Percent positive staining [2]: 55%
Half-life for dissociation [3]: 0.717 h
Kd [3]: 59.5 nM
koff [3]: 0.000266 s⁻¹
kon [3]: 4470 M⁻¹ s⁻¹
Percent positive staining [4]: 42%
Percent positive staining [5]: 53%
Percent positive staining [6]: 7%
Percent positive staining [7]: 86%
Percent positive staining [8]: 91%
Percent positive staining [9]: 0.45%
Percent positive staining [10]: 85%
Percent positive staining [11]: 22%
Percent positive staining [12]: 36%
B1: Vedolizumab-biotin (antibody, INN chains, looked up, V domains shown)
VH: QVQLVQSGAEVKKPGASVKVSCKGSGYTFTSYWMHWVRQAPGQRLEWIGEIDPSESNTNYNQKFKGRVTLTVDISASTAYMELSSLRSEDTAVYYCARGGYDGWDYAIDYWGQGTLVTVSS
VL: DVVMTQSPLSLPVTPGEPASISCRSSQSLAKSYGNTYLSWYLQKPGQSPQLLIYGISNRFSGVPDRFSGSGSGTDFTLKISRVEAEDVGVYYCLQGTHQPYTFGQGTKVEIKR
modifications: biotin label
